A short description of the series: yeast display, Sf9 membrane polyspecificity reagent, FACS + sequencing; frameworks hold sequencing errors. The gist of the method: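 A synthetic nanobody library was expressed on Saccharomyces cerevisiae BJ5465 by galactose induction for 36–48 hours. The library was stained for 1 hour at 4 °C with 10% biotinylated, detergent-solubilized Sf9 membrane reagent and enriched with streptavidin microbeads before FACS. Low and high (top ~1%) gates were set on anti-HA fluorescence for expression and streptavidin fluorescence for reagent binding, and each polyreactivity label reflects the gate of origin.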
Consider “QGQLEESGGGLVQAGGSLRLSCAASGSLFPSYVMGWYRQAPGKERELVAAIRTSGDRTYYADSVKGRFTNSRDNAKNTVYLQMNCLKPEDTAVYYCAAPYGHKSPRMYYWGQGTQVTVSS”, for which the “polyreactivity (PSR sort gate)” value was “high polyreactivity”.

For the sequence “QGQLEESGGGLVQAGGSLRLSCAASGSTFTYYAMGWYRQATGKERELVAAISWSGTRTYYADSVKGRFTISRDNAKNTDYLQTNSLKPEDTAVYYCAADWRRSGVYTMGYWGQGTQVTVSS”, the “polyreactivity (PSR sort gate)” value is recorded as “high polyreactivity”.

For “QGQLGESGGGLVQAGGSLRLSSPASGIIFWDYAMAWSRQSPGNEREFVAAINTSGGTTTYADSVKGRFTISRDNAKNTVYLQMNSLKPEDTAVYYCAADPWGYYSYAYYYWGQGTQVTVSS”, the “polyreactivity (PSR sort gate)” value is on record as “low polyreactivity”.

As for “QGQLVDSGGGLVQAGGSLRLSCAASGFTVTRYAMGWYRTATGKERELVAAISWNSGSTYYADSVKGRFTISRDNAKNTVYLQMNSLKPEDTAVYYCAARDDQGYCYWGQGTQVTVSS”, the “polyreactivity (PSR sort gate)” value is on record as “high polyreactivity”.

For “QGQLVESCGGLVQAGGSLRFICAASGSNFFSYAMGCYRQAPWKERELVASISRRGGTTYYADSVKGRFTISRDNAKNTVYLHMNSLKPDDTAVYYCAAKLLYGGRYGYWGQGTQVTVSS”, the “polyreactivity (PSR sort gate)” value is on record as “high polyreactivity”.

For “QGQLVESCGGLVQAGGSLRLSCAASGSTFAAYTMGWYRQAPGQERELVAAIRFDGGRTYYADSVKGRFTSSRDNAKNTVYLPMNSLKPEDTAVYYCRAWQSYSYDYWGQGTQVTVSS”, the “polyreactivity (PSR sort gate)” value was “high polyreactivity”.

As to “QGQLVESGGALVQAGGSLRLSCAPSGRTFHGYAMGGYRQAPGKERELVARINWSDGRTYYADSVKGRFTISRDNAKNTVYLQMNSLKPEDTAVYYCAADKTVSYGPAWYYYWGQGTQVTVSS”, the “polyreactivity (PSR sort gate)” value was “low polyreactivity”.

For the sequence “QGQLVESGGGFVQAGGSLRLSCAASGRTIEGNAMGWYRQPPWKERELVAGIRQSGDSTYYADSVKGRFTISRDNAKNTVYLQMNSLKAEETAVFYSNSRAFPFGTGVQGFGFGYWGQGTQVTVSS”, the “polyreactivity (PSR sort gate)” value was “low polyreactivity”.

With “QGQLVESGGGIVQAGGSLRLSCSASGLTYGTNAKGLYRQAPRQERELVAAISRSGGTTYYADSVKWRFTISRDNAKNTVDLQMNSLKPEDTAVYYCATRPYSPWRHYFWGQGTQVTVSS”, the “polyreactivity (PSR sort gate)” value is listed as “high polyreactivity”.

For “QGQLVESGGGLFQAGGSLRLSCDDSGRTFSGYAMGWYRQAPGKEREFVAAITWSGGSTYYADSVKGRFSISRDNAKNTVYLQMNSLKPEDTAVYYCAARDYTRYGYGYWGQGTQVTVSS”, the “polyreactivity (PSR sort gate)” value was “high polyreactivity”.

As to “QGQLVESGGGLGQAGGSLRLSSAASGRTFGRYAMGWYRQAPGNERELVAAISYSTDSTYYADSVKGRFTISRDNAKNTVYLQMNSLKPEDTAVYYCATDSVNVGSYVGDKHDYWGQGSQVTVSS”, the “polyreactivity (PSR sort gate)” value is given as “low polyreactivity”.

Turning to “QGQLVESGGGLLQAGGSLRLISAASGSTFPIYAMGWYRHAPRKERELVAAITWRGGSRKYYADSVKGRYTISRDNAKNTVYLQMNCLKPEDTAVYYCAAEYKWPLYGYWGQGTQVTVSS”, the “polyreactivity (PSR sort gate)” value was “low polyreactivity”.

As for “QGQLVESGGGLVQAGCSLRLSCAASGSTFSYYAMGWYRQAPGKETELVAAIRKSGGSTYYADSVKGRFTISRDNAKNTVYLQMNSLKPEDTAVNSCVAVFSYYGWYSRYDYWGQGTQVTVSS”, the “polyreactivity (PSR sort gate)” value is listed as “low polyreactivity”.

Turning to “QGQLVESGGGLVQAGGILRLRCAASGRMFQQYAMGWYRQAPGKERELVAVITYRAGRTHYADSVKGRFTISRDIAKNTVYLQMYRVKPDDTAVYYCAAGRYYAVWHSISGFDSWGQGTQETVSS”, the “polyreactivity (PSR sort gate)” value is “low polyreactivity”.

For “QGQLVESGGGLVQAGGRLRLSCAASGFIFCIYAMAWYRTATGKQREFVAVSTYRGDTKYYADSVKGRFTISRDNAKNTVYLQMNSLKAEDTAVYSCAAYTVQKYGYWGQGTQVTVSS”, the “polyreactivity (PSR sort gate)” value is on record as “low polyreactivity”.

“QGQLVESGGGLVQAGGSLRLICAASGFIFQANALGWYRQAPGQERELVAAITSSVGRTYYADSVKGRFTISRDNAKNTVYLQMNSLKPEYTEVYYCNAGGHLEMNYWGQGTQVTVSS”: the “polyreactivity (PSR sort gate)” value is reported as “low polyreactivity”.

Consider “QGQLVESGGGLVQAGGSLRLSCAACGSIFTYYTMGWYRQAPGKERELVAAIRWSAGRTYYADSVKGRFTISRDNAKNTVYLQMNSMKPEDTAVYYCAAAERLRHGLKFDYWGQGTQVTLSS”, for which the “polyreactivity (PSR sort gate)” value is “high polyreactivity”.

On to “QGQLVESGGGLVQAGGSLRLSCAASGFIFDNNAMGWYRQAPGKERELVAAISFSAGSTYYADSVKGRFTISRDNAKNTVYLQMNSLNPEDTAVYYCNADDWWGGYDYWGQGTQVTVSS”, for which the “polyreactivity (PSR sort gate)” value is listed as “low polyreactivity”.

Regarding “QGQLVESGGGLVQAGGSLRLSCAASGFIFVPYAMGWYRQAPGKEREFVAAITASGGNTYYADSVKGRFTISRDNAKNTVYLQMNSLKPEYTAVYYCAAEISGSLESLDYWGQGTQVTVSS”, the “polyreactivity (PSR sort gate)” value is “low polyreactivity”.

For the sequence “QGQLVESGGGLVQAGGSLRLSCAASGFSFLRYAMGWYRQAPGKERELVAAISTSGGSTSYADSVKGRFTISRDNAKNTVSLQKNSLKQEDTAVYYCNAVLYKVSISEYDYWGQGTQVTVSS”, the “polyreactivity (PSR sort gate)” value is reported as “high polyreactivity”.

As to “QGQLVESGGGLVQAGGSLRLSCAASGFTFVGNAMGWYRQAPGKERELVATITSGGNTKYADSVKGRFTISRDNAKYTVYLQKNSLKPEDTAVYYCAAAKYNYRRFNYWGQGTQVTVSS”, the “polyreactivity (PSR sort gate)” value is reported as “low polyreactivity”.

“QGQLVESGGGLVQAGGSLRLSCAASGFTISSYAMGWYRQATGKEREMVAAISSSGSRTSYADSVKVRFTISRDIAKNSVYFQMNSLKPEDTAVYYCAARPGDGGYYYWGQGTQVTVSS”: the “polyreactivity (PSR sort gate)” value is on record as “high polyreactivity”.

Regarding “QGQLVESGGGLVQAGGSLRLSCAASGFTSSRNAMGWYIQEAGKERELVATISSGGDTYYADSVKGRFTISRDNAKNTVYLQMNSLKPEDTAVYYCNKDPLYAWGYDYWGQGTQVTVSS”, the “polyreactivity (PSR sort gate)” value was “low polyreactivity”.

Turning to “QGQLVESGGGLVQAGGSLRLSCAASGIIFEYYDMGWYRQAPGKERELVAAIDSGGSTYYADSVKGRFTISRDNAKNTVYLQMNSLKPEDTAVYYCAASRPPNTSNTGYGSWGQGTQVTVSS”, the “polyreactivity (PSR sort gate)” value is “low polyreactivity”.

In the case of “QGQLVESGGGLVQAGGSLRLSCAASGRIFGHYAMGWYRQAPGKERELVAAIRWRGGSTYYADSVKGRFTISRDNAKNTVYLQMNSLKPEDTAVYYCARTNNGRFRIVDTRYDYWGQGNQVTVSS”, the “polyreactivity (PSR sort gate)” value is on record as “low polyreactivity”.

For “QGQLVESGGGLVQAGGSLRLSCAASGRIFPGNVMGWYRPAPGKERELVAAISSSGGSTYYADSVKGRFTISRDNAKNTVYLQMNSLKPEDTAVYYCAADSSDWPYDYWGQGTQVTVSS”, the “polyreactivity (PSR sort gate)” value was “low polyreactivity”.

Regarding “QGQLVESGGGLVQAGGSLRLSCAASGRIFRGYAMGWYRQGPGNEREWVAAFSRRGGSTYYADSVKGRFTISRDNAKNTVYLQMNSLKPVDTAVYYCNADGVHYVAYAGGYWGQGTQVTVSS”, the “polyreactivity (PSR sort gate)” value was “high polyreactivity”.

In the case of “QGQLVESGGGLVQAGGSLRLSCAASGRTFNYYAMGWYREAPGKEWELGAAITNRGGSTYYADSVKGRFTISRDNAKNTVYLQMNSLKPEDTAVYYSAARGKYPSASGYTYSYGYWGQGTQVTVSS”, the “polyreactivity (PSR sort gate)” value is on record as “high polyreactivity”.

As to “QGQLVESGGGLVQAGGSLRLSCAASGRTFTAYAMGWYRQAPRKERELVASISSGSSTYYADSVKGRFTISRDNAKYTVYLQMNSLKPEDTAVYYCAARDGYRYYKGKRMGYWGQGTQVTVSS”, the “polyreactivity (PSR sort gate)” value was “high polyreactivity”.

With “QGQLVESGGGLVQAGGSLRLSCAASGRTFVDYDMGWYRQAAGKERELVADINSGGSTYYADSVKGRFTISRDNAKNTVYLQMNSLKREDSAVYYCAADDGWGYISSYDYEYWGQGTQVTVSS”, the “polyreactivity (PSR sort gate)” value is given as “high polyreactivity”.

“QGQLVESGGGLVQAGGSLRLSCAASGRTLYYYAMGWYRQAPGKERELVAAISGGGRTYYADSVKGRFTISRDNAKKTVDLQMNSLKPEDTAVYYCAARYRKSGLDNYWGQGTQVTVSS”: the “polyreactivity (PSR sort gate)” value is given as “high polyreactivity”.

Regarding “QGQLVESGGGLVQAGGSLRLSCAASGRTYDYNAMGWYRQAPWKEWELVAAISSGGSITHYADSVKGRFTISRDNAKNTVYFQMYSLKPEDTAVYYCNAAHLAHRFIGYTRWNYYYWGQGTQVTVTS”, the “polyreactivity (PSR sort gate)” value was “high polyreactivity”.

Regarding “QGQLVESGGGLVQAGGSLRLSCAASGSIFGNAMGWYIQAPGKEREFVAAISSSGSSTYYADSVKGRFTISRDNAKNTVYLQMNSLKPEDTAVYYCAARPPRVSYEYWGQGTQVTVSS”, the “polyreactivity (PSR sort gate)” value is “high polyreactivity”.

In the case of “QGQLVESGGGLVQAGGSLRLSCAASGSIFYYNDMGWYRQAPGKEWELVATITNGGGTNYADSVKGRFTISRDNAKYTVYLQMNSLKPEDTAVYYCAADLWPTVTASGDLIVKFDYWGQGTQVTVSS”, the “polyreactivity (PSR sort gate)” value is reported as “low polyreactivity”.

For “QGQLVESGGGLVQAGGSLRLSCAASGSISLYAMGWYRQAPGKERELVAAITKSGGSTYYADSVKGRFTISRDNAKNTVYLQMHSLKPEDTAVYYCNRGGGERKYNYWGQGTQVTVSS”, the “polyreactivity (PSR sort gate)” value is “high polyreactivity”.

As to “QGQLVESGGGLVQAGGSLRLSCAASGSTFDNYAMGWYRQAPGKERELVAAISSSSSRTYYADSVKGRFTISRDNAKNTVYLQMNSLKPADTAVYYCAKRRSIGYYYWGQGTQVTVSS”, the “polyreactivity (PSR sort gate)” value is listed as “high polyreactivity”.

As for “QGQLVESGGGLVQAGGSLRLSCAASGSTFTIYVMGWYRQAPGKERELVAGISWSGGSTYYTDSVKGRFTISRDNAKNTVYLQMNSLKPEDTAVYYCNADAQWSVWSYIIDYDYWGQGTQVTVPS”, the “polyreactivity (PSR sort gate)” value was “low polyreactivity”.

With “QGQLVESGGGLVQAGGSLRLSCAASGSTFYIYAMGWYRQAPGKERELVARISGSGGSTYYADSVKGRFTISRDNAKNTVYLQMNSLKPEDTAVYYCAADDIYKYYQYYAFPYYRYDYWGQGTQVTVSS”, the “polyreactivity (PSR sort gate)” value is “low polyreactivity”.

With “QGQLVESGGGLVQAGGSLRLSSAASGRTFPSYAMGWYRQAPGKERELVAAITVSGGNTYYADSVKGRFTISRDNAKNTVYLQMNSLKAEDTAVYYCNTASYVSWYVHYYYWGLGTQVTVSS”, the “polyreactivity (PSR sort gate)” value is given as “low polyreactivity”.

Consider “QGQLVESGGGLVQAGGSLRLSSAASGSIFFQNVMGWYRQAPGKERELVAAFSSSGDSTYYADSVKGRFTISRDNAKNTVYLQMISLKPEDTAVYYCAAEPEYVSGPYDYWGQGTQVTVSS”, for which the “polyreactivity (PSR sort gate)” value is listed as “low polyreactivity”.

For the sequence “QGQLVESGGGLVQAGGSLRLTCAASGLTFRRYTMGSYRQAPGNERELVAPISGSGGSTYYADSVKGRFTISRDSAKNTVYFQMNSLKPEDTAVSYCNAPYLHYVIVFTDYSQRYDYWGQGTQVTVSS”, the “polyreactivity (PSR sort gate)” value is recorded as “high polyreactivity”.

The record behind these values is the nanobody polyreactivity screen of Harvey et al. (2022).
